Measured values as given in patent US20130136743A1 (LABORATOIRE FRANCAIS DU FRACTIONNEMENT ET DES …, published 2013).

Biological target: T1, AMHR-II/Fc fusion protein (human, UniProt Q16671 18-149, limits assumed)
T1 construct: also called AMHR-II recombinant receptor expressed in the form of fusion protein with a region Fc; recombinant target; not shown: Fc region
Assay: phage-scFv ELISA on AMHRII-Fc; mean of at least four values, standard deviation in parentheses
Experimental: The secondary screening consists of analysing the clones selected at the end of the primary screening individually. For this, the 113 unique mutated clones were transferred to a culture plate (96 well-1.2 ml).
After production of the phage particles, the culture supernatants containing the phages-scFv were used for carrying out an ELISA binding assay. The binding of the mutated clones was evaluated at two dilutions (½ and ¼ of the supernatants containing the scFv-phages). The murine clones (mLFB112) and humanized clones (huLFB112) constructed under the scFv-phages format were used as references on each of the assay plates. Each of the mutated clones was tested at least twice.

T1 sequence (Q16671 18-149 limits assumed): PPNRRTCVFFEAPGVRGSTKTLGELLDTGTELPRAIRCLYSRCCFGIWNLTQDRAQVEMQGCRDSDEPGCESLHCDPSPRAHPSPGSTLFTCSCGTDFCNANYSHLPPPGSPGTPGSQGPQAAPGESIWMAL

| Binder | Ratio AB invention/chimeric 12G4 | Ratio AB invention/humanized 12G4 |
| --- | --- | --- |
| 4C_35 (mutated huLFB112 phage-scFv clone) (scFv, part only; not given: scFv linker and phage partner, V domains shown, not shown: another chain or arm of the molecule; large carriers; small tags and cut ends) VH: QVQLVQSGAEVKKPGASVKVSCKASGYTFTSYHIHWVRQAPGQRPEWMGWIYPGDDSTKYSQKFQGRVTITRDTSASTAYMELSSLRSEDTAVYYCTRGDRFAYWGQGTLVTVSS VL: DIQMTQSPSTLSASVGDRVTITCRASSSVRYIAWYQQKPGKAPKLLIYSTSSLKSGVPSRFSGSGSGTEFTLTISSLQPDDFATYYCLQWSSYPWTFGGGTKVEIK | 1.9 | 4.3 |
| 3C_23 (mutated huLFB112 phage-scFv clone) (scFv, part only; not given: scFv linker and phage partner, V domains shown, not shown: another chain or arm of the molecule; large carriers; small tags and cut ends) VH: QVRLVQSGAEVKKPGASVKVSCKASGYTFTSYHIHWVRQAPGQRLEWMGWIYPGDDSTKYSQKFQGRVTITRDTSASTAYMELSSLRSEDTAVYYCTRGDRFAYWGQGTLVTVSS VL: DIQMTQSPSTLSASVGDRVTITCRASSSVRYIAWYQQKPGKAPKLLTYPTSSLESGVPSRFSGSGSGTEFTLTISSLQPDDFATYYCLQWSSYPWTFGGGTKVEIK | 1.2 | 2.6 |
| 4F_196 (mutated huLFB112 phage-scFv clone) (scFv, part only; not given: scFv linker and phage partner, V domains shown, not shown: another chain or arm of the molecule; large carriers; small tags and cut ends) VH: QVELVQSGAEVKKPGASVKVSCKASGYTFTSYHIHWVRQAPGQRLEWMGWIYPGDDSTKYSRKFQGRVTITRDTSASTAYMELSSLRSDDTAVYYCTRGDRFAYWGQGTLVTVSS VL: DIQMTQSPSTLSASVGDRVTITCRASSSVRYIAWYQQKPGKAPKLLIYSTSSLESGVPSRFSGSGSGTEFTLTISSLQPDDFATYYCLQWSSYPWTFGGGTKVEIK | 1.5 | 3 |
| 5B_81 (mutated huLFB112 phage-scFv clone) (scFv, part only; not given: scFv linker and phage partner, V domains shown, not shown: another chain or arm of the molecule; large carriers; small tags and cut ends) VH: QVQLVQSGAEVKKPGASVKVSCKASGYTFTSYHIHWVRQAPGQRPEWMGWIYPGDDSTKYSQKFQGRVTITRDTSASTAYMELSSLRSEDTAVYYCTRGDRFAYWGQGTLVTVSS VL: DIQMTQSPSTLSASVGDRVTITCRASSSVRYIAWYQQKPGKAPKLLIYSTSSLESGVPSRFSGSGSGTEFTLTISSLQPDDFATYYCLQWSSYPWTFGGGTKVEIK | 1.6 | 3.5 |
| 6A_80 (mutated huLFB112 phage-scFv clone) (scFv, V domains shown, scFv on M13 phage, tested as culture supernatant; Q62E: TAG codon suppressed, translated to E in E. coli XL1-blue; not shown: The 15-residue scFv linker (positions 116-130 of the scFv numbering) and the M13 phage display partner) VH: QVQLVQSGAEVKKPGASVKVSCKVSGYTFTSYHIHWVRQAPGQRLEWMGWIYPGDDSTKYSEKFQGRVTITRDTSASTAYMELSSLRSEDTAVYYCTRGDRFAYWGQGTLVTVSS VL: DIQMTQSPSTLSASVGDRVTITCRASSSVRYIAWYQQKPGKAPKLLIYSTSSLESGVPSRFSGSGSGTEFTLTISSLQPDDFATYYCLQWSSYPWTFGGGTKVEIK | 1.3 | 1.5 |
| 5A_28 (mutated huLFB112 phage-scFv clone) (scFv, V domains shown, scFv on M13 phage, tested as culture supernatant; not shown: The 15-residue scFv linker (positions 116-130 of the scFv numbering) and the M13 phage display partner) VH: QVQLVQSGAEVKKPGASVKVSCKASGYTFTSYHIHWVRQAPGQRLEWMGWIYPGDDSTKYSQKFQGRVTITRDTSASTAYMELSSLRSEDTAVYYCTRGDRFAYWGQGTLVTVSS VL: DIQMTQSPSTLSASVGDRVTITCRASSSVRYIAWYQQKPGKAPKLLIHPTSSLESGVPSRFSGSGSGTEFTLTISSLQPDDFATYYCLQWSSYPWTFGGGTKVEIK | 0.8 | 1.6 |
| 3D_74 (mutated huLFB112 phage-scFv clone) (scFv, V domains shown, scFv on M13 phage, tested as culture supernatant; not shown: The 15-residue scFv peptide linker (positions 116-130 of the scFv numbering) and the M13 phage display partner) VH: QVQLVQSGAEVKKPGASVKVSCKASGYTFTSYHIHWVRQAPGQRLEWMGWIYPGDDSTKYSQKFQGRVTITRDTSASTAYMELSSLRSEDTAVYYCTRGDRFAYWGQGTLVTVSS VL: DIQMTQSPSTLSASVGDRVTITCRASSPVRYIAWYQQKPGKAPKLLIYSTSSLESGVPSRFSGSGSGTEFTLTISSLQPDDFATYYCLQWSSYPWTFGGGTKVEIK | 0.8 | 2 |
| 4D_91 (mutated huLFB112 phage-scFv clone) (scFv, V domains shown, scFv on M13 phage, tested as culture supernatant; Q1E: TAG codon suppressed, translated to E in E. coli XL1-blue; not shown: The 15-residue scFv peptide linker (positions 116-130 of the scFv numbering) and the M13 phage display partner) VH: EVQLVQSGAEAKKPGASVKVSCKASGYTFTSYHIHWVRQAPGQRLEWMGWIYPGDDSTKYSQKFQGRVTITRDTSASTAYMELSSLRSEDTAVYYCTRGDRFAYWGQGTLVTVSS VL: DIQMTQSPSTLSASVGDRVTITCRASSSVRYIAWYQQKPGKAPKLLIYSTSSLESGVPSRFSGSGSGTEFTLTISSLQPDDFATYYCLQWSSYPWTFGGGTKVEIK | 0.8 | 1.7 |
| 6B_14 (mutated huLFB112 phage-scFv clone) (scFv, V domains shown, scFv on M13 phage, tested as culture supernatant; Q39E: TAG codon suppressed, translated to E in E. coli XL1-blue; not shown: The 15-residue scFv peptide linker (positions 116-130 of the scFv numbering) and the M13 phage display partner) VH: QVQLVQSGAEVKKPGASVKVSCKASGYTFTGYHIHWVREAPGQRLEWMGWIYPGDDSTKYSQKFQGRVTITRDTSASTAYMELSSLRSEDTAVYYCTRGDRFAYWGQGTLVTVSS VL: DIQMTQSPSTLSASVGDRVTITCRASSSVRYIAWYQQKPGKAPKLLIYSTSSLESGVPSRFSGSGSGTEFTLTISSLQPDDFATYYCLQWSSYPWTFGGGTKVEIK | 1.1 | 2.6 |
| 5B_18 (mutated huLFB112 phage-scFv clone) (scFv, V domains shown, scFv on M13 phage, tested as culture supernatant; Q3E: TAG codon suppressed, translated to E in E. coli XL1-blue; not shown: The 15-residue scFv peptide linker (positions 116-130 of the scFv numbering) and the M13 phage display partner) VH: QVELVQSGTEVKKPGASVKVSCKASGYTFTSYHIHWVRQAPGQRLEWMGWIYPGDDSTKYSQKFQGRVTITRDTSASTAYMELSSLRSEDTAVYYCTRGDRFTYWGQGTLVTVSS VL: DIQMTQSPSTLSASVGDRVTITCRASSSVRYIAWYQQKPGKAPKLLIYSTSSLESGVPSRFSGSGSGTEFTLTISSLQPDDFATYYCLQWSSYPWTFGGGTKVEIK | 0.9 | 1.8 |
| 6B_87 (mutated huLFB112 phage-scFv clone) (scFv, V domains shown, scFv on M13 phage, tested as culture supernatant; Q1E: TAG codon suppressed, translated to E in E. coli XL1-blue; not shown: The 15-residue scFv peptide linker (positions 116-130 of the scFv numbering) and the M13 phage display partner) VH: EVQLVQSGAEVKKPGASVKVSCKVSGYTFTSYHIHWVRQAPGQRLEWMGWIYPGDDSTKYSQKFQGRVTITRDTSASTAYMELSSLRSEDTAVYYCTRGDRFAYWGQGTLVTVSS VL: DIQMTQSPSTLSASVGDRVTITCRASSSVRYIAWYQQKPGKAPKLLIYSTSSLESGVPSRFSGSGSGTEFTLTISSLQPDDFATYYCLQWSSYPWTFGGGTKVEIK | 1 | 2.1 |
| 5A_66 (mutated huLFB112 phage-scFv clone) (scFv, V domains shown, scFv on M13 phage, tested as culture supernatant; not shown: The 15-residue scFv peptide linker (positions 116-130 of the scFv numbering) and the M13 phage display partner) VH: QVQLVQSGAEVKKPGASVKVSCKASGYTFTSYHIHWVRQAPGQRLEWMGWIYPGDDSTKYSQKFQGRMTITRDTSASTAYMELSSLRSEDTAVYYCTRGDRFAYWGQGTLVTVSS VL: DIQMTQSPSTLSASVGDRVTITCRASSSVRYIAWYQQKPGKAPKLLIYSTSSLESGVPSRFSGSGSGTEFTLTISSLQPDDSATYYCLQWSSYPWTFGGGTKVEIK | 1.1 | 2.2 |
| 6B_76 (mutated huLFB112 phage-scFv clone) (scFv, V domains shown, scFv on M13 phage, tested as culture supernatant; not shown: The 15-residue scFv linker (positions 116-130 of the scFv numbering) and the M13 phage display partner) VH: QVQLVQSGAEVKKPGASVKVSCKASGYTFTSYHIHWVRQVPGQRLEWMGWIYPGDDSTKYSQKFQGRVTITRDTSASTAYMELSSLRSEDTAVYYCTRGDRFAYWGQGTLVTVSS VL: DIQMTQSPSTLSASVGDRVTITCRASSSVRYIAWYQQKPGKAPKLLIYPTSSLESGVPSRFSGSGSGTEFTLTISSLQPDDFATYYCLQWSSYPWTFGGGTKVEIK | 0.8 | 1.7 |
| 4E_153 (mutated huLFB112 phage-scFv clone) (scFv, V domains shown, scFv on M13 phage, tested as culture supernatant; not shown: The 15-residue scFv peptide linker (positions 116-130 of the scFv numbering) and the M13 phage display partner) VH: QVQLVQSGAEVKKPGASVKVSCKASGYTFTSYHIHWVRQAPGQRLEWMGWIYPGDNSTKYSQKFQGRVTNTRDTSASTAYMELSSLRSEDTAVYYCTRGDRSAYWGQGTLVTVSS VL: DIQMTQSPSTLSASVGDRVTITCRASSSVRYIAWYQQKPGKAPKLLIYSTSSLESGVPSRFSGSGSGTEFTLTISSLQPDDFATYYCLQWSSYPWTFGGGTKVEIK | 1 | 2 |
| 4F_169 (mutated huLFB112 phage-scFv clone) (scFv, V domains shown, scFv on M13 phage, tested as culture supernatant; Q6E: TAG codon suppressed, translated to E in E. coli XL1-blue; not shown: The 15-residue scFv peptide linker (positions 116-130 of the scFv numbering) and the M13 phage display partner) VH: QVQLVESGAEVKKPGASVKVSCKASGYTFTSYHIHWVRQAPGQRLEWMGWIYPGDDSAKYSQKFQGRVTITRDTSASTAYMELSSLRSEDTAVYYCTRGDRFAYWGQGTLVTVSS VL: DIQMTQSPSTLSASVGDRVTITCRASSSVRYIAWYQQKPGKAPKLLIYSTSSLESGVPSRFSGSGSGTEFTLTISSLQPDDFATYYCLQWSSYPWTFGGGTKVEIK | 1 | 2 |
